± gives the uncertainty stated by the source.
Assay: amyloid nucleation score (Sup35N fusion, yeast selection) (log enrichment); library NNK2; higher = more nucleation; inactive = no reads after selection
In short: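 Random libraries were run with three technical output replicates. In each, psi-negative yeast expressing Sup35N fused to peptides of 20 random codons were induced 24 hours with 100 μM copper sulfate and grown 7 days at 30°C on medium lacking adenine and uracil, and input and output plasmid inserts were Illumina-sequenced. The nucleation score is the DiMSum log enrichment of output over input reads, centred on the mode score of non-aggregating sequences, and sequences under 100 input reads were excluded.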

Row | Substance | amyloid nucleation score
1 | LLLCYYVFASHKFCCGDGVL | -0.302 ± 0.76
2 | LLLRGQLQVMPGDPARRMYV | 0.556 ± 0.29
3 | LLMFRVRVDELWHGAARHMG | 1.64 ± 0.38
4 | LLMQVIRPVNLLFRWRELWA | 0.213 ± 0.34
5 | LLMVRVGRSQVRSNKNRH | 5.984 ± 0.054
6 | LLPATWYLVLF | -0.204 ± 0.49
7 | LLPIGEVKE | -1.17 ± 0.44
8 | LLPYSSHN | 4.901 ± 0.039
9 | LLTMVHTSSIRKESGF | -0.118 ± 0.5
10 | LLTTEQ | 1.29 ± 0.43
11 | LLVAEVV | 0.538 ± 0.49
12 | LLYRYYSF | 3.72 ± 0.056
13 | LLYTDYMMIYCIAFMLSDDY | -0.916 ± 1.1
14 | LMDQSTFNRVKYVGHWVVSG | 1.74 ± 0.087
15 | LMFTCVMSFWRLSVRVILNY | 0.277 ± 0.41
16 | LMSNINVSIYIFG | 7.782 ± 0.063
17 | LMSQGCRGRLLL | -0.356 ± 0.64
18 | LMVESNWHALHLVYVFSYI | 0 ± 0.56
19 | LMVKSDTCLLSLLSPTPFRR | 3.67 ± 0.1
20 | LMYGKEWSMEQIVGTSTFGY | -1.36 ± 0.48
21 | LNCENELDFKLLSQSNTTMC | 0.199 ± 0.62
22 | LNEIERSSD | 0.755 ± 0.3
23 | LNIAMVASNGRSVAVRSSGG | 0.113 ± 0.5
24 | LNLFFLCGYPYYRNVGCMGH | 7.195 ± 0.067
25 | LNLNR | inactive
26 | LNMPLLYDYPCYNSWDRYYS | -1.5 ± 0.53

Row | Substance | amyloid nucleation score
27 | LNPIFVWFHSC | 7.23 ± 0.077
28 | LNRLCRRVCRSINDTIAIRE | -0.157 ± 0.26
29 | LNRTRYIAISKVLNRFSVSR | -0.237 ± 0.64
30 | LNSQSLVAYMRAFVKDSPCR | 0.007 ± 1.1
31 | LNSYPASV | inactive
32 | LNTLDNN | -0.047 ± 0.16
33 | LNTYMAYSGWIVTN | -0.148 ± 0.33
34 | LNVDP | inactive
35 | LNYYWRFMPGGIGITGSSLS | 1.72 ± 0.12
36 | LPCFYEVCQTSHYRFYFIGK | 1.96 ± 0.071
37 | LPCRFKKYALHNQSTTGFWI | -0.187 ± 0.65
38 | LPHCL | 1.36 ± 0.24
39 | LPKGNYSLLAERRSYFGAPI | inactive
40 | LQCAFFDSSNMWI | -0.604 ± 0.76
41 | LQCLSRASGHCPGRSTFWHF | 1.02 ± 0.27
42 | LQGRYNSTYYMDVAGLVVSE | -1.23 ± 0.76
43 | LQLCCAMVS | 0.883 ± 0.44
44 | LQRVF | 1.19 ± 0.47
45 | LQSCAGTFTCDCVVGRNYGR | 0.31 ± 0.23
46 | LQSRWCRVKETWQS | 1.66 ± 0.32
47 | LQVMMYFWDEFVTKLEKVSG | -0.809 ± 1.1
48 | LQYFLGAFAILFMCLLWVLQ | 0.381 ± 0.64
49 | LRDCLIRNPLKLRTKLTGHV | 0.608 ± 0.3
50 | LRFASSNKLVGLD | inactive
51 | LRFVVMVHLE | -0.072 ± 0.79
52 | LRHCVYVYSATSRWIC | 0.674 ± 0.43

Row | Substance | amyloid nucleation score
53 | LRIICMSTMWRKCFRGIATA | -0.195 ± 0.39
54 | LRIQCMMTLVWYSTPQSCNT | 5.56 ± 0.066
55 | LRLSHMFLVNMSWGNVINLC | 3.28 ± 0.091
56 | LRNHSHA | 0.685 ± 0.41
57 | LRSGLSLGSNLPKGGNIRSL | -0.531 ± 1.1
58 | LRSLIYRCVLQWNTAKFLRS | -0.716 ± 1.1
59 | LRSRVSSSLSYKLLFRTNVL | -0.175 ± 0.49
60 | LRSYLNSHLLLEY | -1.44 ± 0.62
61 | LRTIHYPC | inactive
62 | LRTYYPRNVGA | -0.117 ± 0.5
63 | LRWQKNLNSL | -0.778 ± 0.64
64 | LRYPKRGFPNHVLSIESKLD | -0.479 ± 1
65 | LRYSTSHSKNRRSDALNIKG | -0.739 ± 0.45
66 | LRYVEGHGKDITSGGSLEEH | 1.41 ± 0.14
67 | LSAVVTSFKVTN | 0.523 ± 0.64
68 | LSFVVL | -0.67 ± 1.1
69 | LSGLIGG | -0.135 ± 0.55
70 | LSHMPDMALAKPWHRARD | 5.04 ± 0.076
71 | LSHRSQYGADVIRSR | -0.316 ± 0.61
72 | LSKMWPPIHTTLIPLTDAER | 4.84 ± 0.06
73 | LSLFISGDYWVIQGNIY | 3.65 ± 0.059
74 | LSLNFLPYWLPQARCL | 5.06 ± 0.099
75 | LSLTNIYGKSIRDERIKTSC | -0.129 ± 0.65
76 | LSLVEIFLGMRSLEVFCWVE | -0.709 ± 0.28
77 | LSLVYRIGLNCNRELSSFDW | 2.33 ± 0.1
78 | LSLYWVMSLKSQAP | 0.354 ± 0.64

Row | Substance | amyloid nucleation score
79 | LSMSWC | 1.1 ± 0.44
80 | LSMVYYATFDGF | -1.01 ± 1.1
81 | LSMYDLYSMAR | inactive
82 | LSPIVVPLYKQLDIFGVRRN | inactive
83 | LSREFLNASL | -0.947 ± 0.49
84 | LSRFNFSNVLLRRNMSARA | -1.78 ± 0.62
85 | LSRSGNAPDMKKLLNFGQTR | 3.71 ± 0.042
86 | LSRSMK | -0.326 ± 0.29
87 | LSSEVISSSHALQKTSICRF | 2.72 ± 0.13
88 | LSSGEYVSSGMRGTSCEKSK | -0.007 ± 0.79
89 | LSSIWVSSYHLSWLKSW | -0.048 ± 0.42
90 | LSTSWQRLVTILPLEWYHS | 0.052 ± 0.26
91 | LSYSVNWWPRSGWSYYVNEF | -0.176 ± 1.1
92 | LSYVDWKCAVFDICW | 3.53 ± 0.043
93 | LTACRVLRLLKCSQRE | 4.68 ± 0.075
94 | LTCRTFYNNCVNEWSLHLSL | 4.07 ± 0.072
95 | LTGMVTCATI | 0.53 ± 0.36
96 | LTHEKLKGLYCTA | -0.404 ± 0.32
97 | LTHSRNLRKVRTNRNNETHV | 0.005 ± 1
98 | LTLLYIWSKDAVRYLLGNMD | -1.09 ± 1.1
99 | LTRVNWCLPKAGSLKQF | -0.06 ± 0.79
100 | LTSGVHCHKRTVHD | -0.263 ± 1.1
101 | LTSISYIIGDRWSIEVGRVF | -0.337 ± 1.1
102 | LTSSSSSQVWGLYVYDGHLK | -0.045 ± 0.38
103 | LTTKKLRSWV | -0.895 ± 1.1
104 | LTTPLSRQVCMRFRAFNPEA | -0.655 ± 0.41

Row | Substance | amyloid nucleation score
105 | LTVLCPANLSYRIVYVLLYK | -0.865 ± 0.41
106 | LTWRYLLYPLDKFGLETWVL | 0.375 ± 0.46
107 | LTYIRMQVHLVDYDRDALG | -1.32 ± 0.49
108 | LTYYLRSFVIPSWG | inactive
109 | LVALK | 1.08 ± 0.51
110 | LVAVVQGFRCVCLDSKLTGV | inactive
111 | LVCGLDGLVCS | 0.111 ± 0.56
112 | LVDKVYNDAILLVWDNESRT | -0.464 ± 0.64
113 | LVESGQGDQSAPNRTDWFNG | -0.437 ± 0.49
114 | LVESVTEEQE | 0.837 ± 0.47
115 | LVEVIGFVRVSEPISTHA | 0.884 ± 0.33
116 | LVFLIETRNFFRLHLSGCWA | -1.27 ± 0.75
117 | LVGYLSSVELDYRWENC | -0.026 ± 0.32
118 | LVHFNFMCVVARMFDMFF | inactive
119 | LVMRMFRERYNLCVSYWLN | inactive
120 | LVNKG | 3.15 ± 0.064
121 | LVPSY | 0.457 ± 0.18
122 | LVRSVFIRYCISIPCRTRVL | 0.034 ± 1.1
123 | LVSESTLINSFLQIWFWSTL | -0.324 ± 1.1
124 | LVSRCDDACGIQTGNMV | 0.043 ± 0.33
125 | LVSTEIN | 3.75 ± 0.052
126 | LVTRTVWGLK | 0.223 ± 0.21
127 | LVVCEMY | 0.348 ± 0.25
128 | LVVCKHVV | -0.323 ± 0.56
129 | LVWCAISSNNKGLINVLADS | -1.47 ± 0.5
130 | LVWWLSNRV | 2.41 ± 0.088

Row | Substance | amyloid nucleation score
131 | LVYWRQYYCKGRVRLLC | inactive
132 | LWAPAYCLIKC | 0.851 ± 0.57
133 | LWGLYNREFNAWRGHFVQDG | inactive
134 | LWGYCTMLSEGH | -0.018 ± 0.2
135 | LWHHIHSDLMTIYFVLDSSG | inactive
136 | LWRIVSWVECIRCTNP | 0.182 ± 0.79
137 | LWSFKYFSVCYNLWTIMKGG | inactive
138 | LWSGFLSFVSNVPTFLYLS | -2.01 ± 0.41
139 | LWTKFDSPSRVCHKSQLSKA | 0.192 ± 0.26
140 | LYDFRDSYAYVCLTGYKYLG | 1.02 ± 0.57
141 | LYDVRGEMSNVGWFM | -0.052 ± 0.54
142 | LYEMVVM | 0.05 ± 1
143 | LYERFIVENDCFQNHMKHEA | inactive
144 | LYEVLESVMIGI | -0.097 ± 0.6
145 | LYGHGSILVRTNGGISFRRN | -1.02 ± 1.1
146 | LYGRYANERWRLNSLDEKVT | 0.881 ± 0.45
147 | LYIDLHDEALRTTKMDMLNG | inactive
148 | LYKSSIA | -2.08 ± 0.49
149 | LYLGMDYWWDV | -0.164 ± 0.33
150 | LYMCSSVLWVGLSLV | 0.851 ± 0.56
151 | LYNRLACL | 1.86 ± 0.084
152 | LYQVRGTY | 0.353 ± 0.22
153 | LYRLGFEAHRVYKQLKIIGG | 0.764 ± 0.4
154 | LYRNSMRRDR | -0.669 ± 0.35
155 | LYRQTLLSHL | -0.231 ± 0.24
156 | LYRSSLRFMPTIICETVWMY | inactive

Row | Substance | amyloid nucleation score
157 | LYVLTNSGPHCLCVGMMHYN | inactive
158 | LYWAFTTISLYLTSTFVSLM | -1.66 ± 1.1
159 | LYWYKY | -0.414 ± 0.79
160 | MALHVQWRVTGSI | 5.14 ± 0.037
161 | MALVSTSSFFDV | inactive
162 | MAVYTRVVTLCRGKPFS | 1.06 ± 0.35
163 | MCELGFHNSPFSGTFLLLMF | 1.64 ± 0.12
164 | MCNFRSWGALLNKRAHGVGS | 0.307 ± 0.65
165 | MCQDGCHGFLVTADQPQSGA | -0.148 ± 0.42
166 | MCSPSQEVITYHSDFWNGQK | 1.18 ± 0.68
167 | MCTELYEDGNKPTTRSDRSA | 3.21 ± 0.1
168 | MCTGRFFSITSYGCKESSYL | 1.49 ± 0.26
169 | MDFVNTIATCNKKREVRFVI | -1.1 ± 0.36
170 | MDLRVTVILFSDYEAYFDVT | 1.33 ± 0.18
171 | MDQNG | -0.427 ± 0.79
172 | MDYTFSLQTMCGVWYCYWGR | 1.31 ± 0.31
173 | MEFDVLSIFQRGSRAGAK | -1.3 ± 0.54
174 | MELMNMV | -0.127 ± 0.65
175 | MELTSN | inactive
176 | MFCSEMLVYGLMMVLSF | -0.05 ± 0.3

Reference: the supplement of paper PMC12042874
